Measurements reported in patent publication US20250230211A1 (NANTCELL, published 2025).

Legend:
[1] = target: T1, human CTLA4 (human, UniProt P16410 36-161); test: SPR, antibody captured by anti-human IgG Fc, analyte by OneStep injection at 40 nM and 20 nM
T1 sequence (looked up): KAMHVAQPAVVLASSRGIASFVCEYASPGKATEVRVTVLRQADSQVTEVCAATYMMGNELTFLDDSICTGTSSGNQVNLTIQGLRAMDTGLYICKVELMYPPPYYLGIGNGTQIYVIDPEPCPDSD
Protocol: (§1) Surface plasmon resonance (SPR) studies were conducted with the purified fusion proteins to assess their binding affinities to relevant targets. The SPR kinetic assay was performed by immobilizing rabbit α-human IgG Fc antibodies (Thermo) on a PCH sensor (Sartorius) as the capture molecule. All molecules of interest were then captured on the sensor surface by α-IgG1-Fc and Fc domain interaction. Binding kinetics against IL-2Rβ, human CTLA4, and murine CTLA4 were determined by OneStep injection at 40 nM and 20 nM of each analyte. […] The αCTLA4-scFv has higher affinity to CTLA4 than when the binding domain is in IgG form.

[2] = target: T2, murine CTLA4 (murine, UniProt P09793 36-161, limits assumed); test: as above
T2 construct: also called Mouse CTLA4
Protocol: as §1

- Kd [1]: 1.1 to 1.6 nM
- Kd [2]: 0.13 to 2.1 nM
B1: αCTLA4-7 (antibody, human IgG1, kappa, V domains shown)
VH: EVQLVESGGGLVQPGGSLRLSCAASGFTFTSYSMHWVRQAPGKGLEWVSGISGSGRSTSYADSVKGRFTISRDNSKNTLYLQMNSLRAEDTAVYYCARDLMAFNLVRAGGFDVWGQGTLVTVSS
VL: DIQMTQSPSSLSASVGDRVTITCQASQDISNYLNWYQQKPGKAPKLLIYDASNLETGVPSRFSGSGSGTDFTFTISSLQPEDIATYYCQQGDAWPWTFGQGTKVEIKR
